Source: publication PMC6035221, “Interaction between parasite-encoded JAB1/CSN5 and macrophage migration inhibitory factor proteins attenuates its proinflammatory function” (Scientific Reports, 2018)

Molecular target: T1, GST-tagged full-length EhJAB1 (Entamoeba histolytica, UniProt C4LTS3 1-318)
T1 construct: EhJAB1 of Entamoeba histolytica, EHI_050500, full length (gene of 957 base pairs; deletions count to residue 318), codon optimized; Cloned in pDEST15 and sub-cloned in pGEX-4T1; also called GST-EhJAB1; GST-JAB1; source: E. coli BL21(DE3); purified on glutathione-sepharose (BLI)
T1 sequence (looked up): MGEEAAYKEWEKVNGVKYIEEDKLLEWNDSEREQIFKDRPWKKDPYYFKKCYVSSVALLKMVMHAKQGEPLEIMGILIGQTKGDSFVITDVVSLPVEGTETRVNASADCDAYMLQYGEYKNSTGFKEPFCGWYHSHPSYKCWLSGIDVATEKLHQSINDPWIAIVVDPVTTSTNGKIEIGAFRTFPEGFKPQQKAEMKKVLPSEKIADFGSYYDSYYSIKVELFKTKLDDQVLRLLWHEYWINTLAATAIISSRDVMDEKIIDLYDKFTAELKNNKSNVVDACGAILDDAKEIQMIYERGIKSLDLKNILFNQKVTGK
Test: BLI; GST-EhJAB1 or GST loaded on anti-GST biosensors; EhMIF 5 to 80 nM (2-fold series); 1x DPBS, 0.1% BSA, 0.02% Tween 20; association 600 s, dissociation 600 s
Conditions: both partners purified

B1: Entamoeba histolytica MIF (EhMIF), recombinant (natural protein)
chain: MPHALITLSADITEEIKKEIAHESMKILSEVIGKPISYCATQVVTSVGGFGGKIVKSAFIDIKSISGLKGKQEGLSDRYCKLLEQKAGIEGGNIYLNFTEMTGNNWGYDHSTF
Question: For B1, which Kd is on record?
Answer: 38.6 nM
